From IntAct's records for PubMed 26192437

B1: CDK5 regulatory subunit-associated protein 2 (Homo sapiens), Q96SN8 (parent)
chain: MMDLVLEEDVTVPGTLSGCSGLVPSVPDDLDGINPNAGLGNGLLPNVSEETVSPTRARNMKDFENQITELKKENFNLKLRIYFLEERMQQEFHGPTEHIYKTNIELKVEVESLKRELQEREQLLIKASKAVESLAEAGGSEIQRVKEDARKKVQQVEDLLTKRILLLEKDVTAAQAELEKAFAGTETEKALRLRLESKLSEMKKMHEGDLAMALVLDEKDRLIEELKLSLKSKEALIQCLKEEKSQMACPDENVSSGELRGLCAAPREEKERETEAAQMEHQKERNSFEERIQALEEDLREKEREIATEKKNSLKRDKAIQGLTMALKSKEKKVEELNSEIEKLSAAFAKAREALQKAQTQEFQGSEDYETALSGKEALSAALRSQNLTKSTENHRLRRSIKKITQELSDLQQERERLEKDLEEAHREKSKGDCTIRDLRNEVEKLRNEVNEREKAMENRYKSLLSESNKKLHNQEQVIKHLTESTNQKDVLLQKFNEKDLEVIQQNCYLMAAEDLELRSEGLITEKCSSQQPPGSKTIFSKEKKQSSDYEELIQVLKKEQDIYTHLVKSLQESDSINNLQAELNKIFALRKQLEQDVLSYQNLRKTLEEQISEIRRREEESFSLYSDQTSYLSICLEENNRFQVEHFSQEELKKKVSDLIQLVKELYTDNQHLKKTIFDLSCMGFQGNGFPDRLASTEQTELLASKEDEDTIKIGEDDEINFLSDQHLQQSNEIMKDLSKGGCKNGYLRHTESKISDCDGAHAPGCLEEGAFINLLAPLFNEKATLLLESRPDLLKVVRELLLGQLFLTEQEVSGEHLDGKTEKTPKQKGELVHFVQTNSFSKPHDELKLSCEAQLVKAGEVPKVGLKDASVQTVATEGDLLRFKHEATREAWEEKPINTALSAEHRPENLHGVPGWQAALLSLPGITNREAKKSRLPILIKPSRSLGNMYRLPATQEVVTQLQSQILELQGELKEFKTCNKQLHQKLILAEAVMEGRPTPDKTLLNAQPPVGAAYQDSPGEQKGIKTTSSVWRDKEMDSDQQRSYEIDSEICPPDDLASLPSCKENPEDVLSPTSVATYLSSKSQPSAKVSVMGTDQSESINTSNETEYLKQKIHDLETELEGYQNFIFQLQKHSQCSEAIITVLCGTEGAQDGLSKPKNGSDGEEMTFSSLHQVRYVKHVKILGPLAPEMIDSRVLENLKQQLEEQEYKLQKEQNLNMQLFSEIHNLQNKFRDLSPPRYDSLVQSQARELSLQRQQIKDGHGICVISRQHMNTMIKAFEELLQASDVDYCVAEGFQEQLNQCAELLEKLEKLFLNGKSVGVEMNTQNELMERIEEDNLTYQHLLPESPEPSASHALSDYETSEKSFFSRDQKQDNETEKTSVMVNSFSQDLLMEHIQEIRTLRKRLEESIKTNEKLRKQLERQGSEFVQGSTSIFASGSELHSSLTSEIHFLRKQNQALNAMLIKGSRDKQKENDKLRESLSRKTVSLEHLQREYASVKEENERLQKEGSEKERHNQQLIQEVRCSGQELSRVQEEVKLRQQLLSQNDKLLQSLRVELKAYEKLDEEHRRLREASGEGWKGQDPFRDLHSLLMEIQALRLQLERSIETSSTLQSRLKEQLARGAEKAQEGALTLAVQAVSIPEVPLQPDKHDGDKYPMESDNSFDLFDSSQAVTPKSVSETPPLSGNDTDSLSCDSGSSATSTPCVSRLVTGHHLWASKNGRHVLGLIEDYEALLKQISQGQRLLAEMDIQTQEAPSSTSQELGTKGPHPAPLSKFVSSVSTAKLTLEEAYRRLKLLWRVSLPEDGQCPLHCEQIGEMKAEVTKLHKKLFEQEKKLQNTMKLLQLSKRQEKVIFDQLVVTHKILRKARGNLELRPGGAHPGTCSPSRPGS

Variants of: B1
Conditions: with tbg1_human TUBG1, P23258
Chain of tbg1_human TUBG1, P23258 (P23258 whole entry): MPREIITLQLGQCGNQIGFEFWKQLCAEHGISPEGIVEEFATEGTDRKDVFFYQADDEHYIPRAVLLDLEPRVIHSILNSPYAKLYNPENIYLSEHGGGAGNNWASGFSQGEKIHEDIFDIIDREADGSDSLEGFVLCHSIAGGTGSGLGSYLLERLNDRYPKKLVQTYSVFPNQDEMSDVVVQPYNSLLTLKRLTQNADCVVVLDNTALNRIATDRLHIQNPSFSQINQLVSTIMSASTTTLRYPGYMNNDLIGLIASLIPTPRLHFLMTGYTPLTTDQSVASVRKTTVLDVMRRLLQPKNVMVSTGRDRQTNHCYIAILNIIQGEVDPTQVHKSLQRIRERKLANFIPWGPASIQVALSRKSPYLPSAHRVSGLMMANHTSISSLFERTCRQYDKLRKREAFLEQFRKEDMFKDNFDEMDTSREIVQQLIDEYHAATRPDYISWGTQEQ

Variant	effect of a mutation on the interaction
S140A	decreasing interaction strength
